Source: the RNAGym collection of RNA variant scans (doi:10.1073/pnas.2313332121)
Fewer inactive variants are shown than the library holds.

B1: TPR 5TU (parent)
chain: GGAUCUUCUCGAUCUAACAAAAAAGACAAAUCUGCCACAAAGCUUGAGAGCAUCUUCGGAUGCAGAGGCGGCAGCCUUCGGUGGCGCGAUAGCGCCAACGUUCUCAACUAUGACACGCAAAACGCGUGCUCCGUUGAAUGGAGUUUAUCAUG

Variants of: B1
Assay: polymerase ribozyme fitness, log enrichment relative to wild type (log ratio); higher = more active; in vitro selection for triplet polymerase activity
Outline: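 In triplicate, a single round of in vitro selection was run on each mutant library, PCR-built and transcribed, covering one subunit of a heterodimeric triplet polymerase ribozyme. Frozen incubation at −7 °C followed annealing with a biotinylated primer, partner subunit and triplets, and extended constructs were then gel-excised, streptavidin-captured and taken through RT-PCR. Fitness is the logarithm of genotype enrichment over wild-type enrichment, from inverse-variance-weighted replicate averages of Illumina-sequenced inputs and outputs. […] only genotypes with ≥10 input reads and ≥1 read per output were kept.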

Variant	polymerase ribozyme fitness (log ratio)
G25C G48C A66G C93A	≤ -4.2
C69A G84A	-2.31
G58A A97U A107U	-4.18
U9A G86A C93U G141C	≤ -4.2
C5U A19G U77A C95U	≤ -4.2
G11A C57A	-1.44
A29U G34C G48C G80A U82A C105A A115G U151A	≤ -4.2
A16C A17G C96G C118U	-1.74
U53A C54U U55A A60U U77G C85U G92A G112A A121U	≤ -4.2
C72U G124U A142G	-2
U6A	0.197
A29C A49U A52C C54A A89C C123A U135G G140C	≤ -4.2
C99G U102G U135A	≤ -4.2
C96U U139A	-3.94
A52G C69A	-3.71
A24G A30G A47U A52C A60C C76A G100A C114A C118G G140A	≤ -4.2
C87U C103U	-0.658
A21C A28U A30U A47G	≤ -4.2
C38U C96G	-1.09
A29G C43U A66C C96U C103A	≤ -4.2
C36U C87U G126A	-2.05

Variant	polymerase ribozyme fitness (log ratio)
U4A A23U C35U G46A G84U C103U U139A	≤ -4.2
C14G G59C C69A A142G	≤ -4.2
C8U C38G G92U C95U C99U U104A U145G	≤ -4.2
A66C G84A C87U	≤ -4.2
C38U G140U	-2.77
C75U G94C G100U A107G	≤ -4.2
A17U C36G U61A C76G C103U A119U G141C	≤ -4.2
A41U C85A A98G A122U G152U	≤ -4.2
C27A A47U A106U U145A	≤ -4.2
C10G A52C C93U	≤ -4.2
A17G U53A C75G A91G A113G G143A	≤ -4.2
C32G A40U C57U U135G	≤ -4.2
U7G C76A C85G C95A A121U	≤ -4.2
U4C U7G C27U U31A G68U G88U	≤ -4.2
C5G A40C G71A C85A A142C A150C	≤ -4.2
C10U A41U G70C G83U C108U U134A A142G	≤ -4.2
U6G C87G	-3.6
G46A G84U C99A A110C C114U U146C	≤ -4.2
C76U G84A U101A	-0.872
U7G G42A U44A G68C A91U G117A U135A	≤ -4.2
G48A G50A U56G U148C	≤ -4.2

Variant	polymerase ribozyme fitness (log ratio)
G50C G117A	-2.37
C32G A52U C99U A106G G124U C131A	≤ -4.2
U6G C85A C125G	-0.955
U78A G80A U82A A142U	≤ -4.2
A20C A98U	-1.29
C54U	-0.314
C14G A21U A60U C75A U77G A89U C95A	≤ -4.2
C8G A20G U44G G48U G84U G128U U144A	≤ -4.2
G42C U56A G84U A121C	≤ -4.2
A12G U45A A52U C93A C118A A120U U145G	≤ -4.2
A23G C38G C95U C114G	-3.85
U7A A121U A138G	≤ -4.2
C27U A122G	-2.4
C8U G84U	-4.13
U7A G25A G50U G84U	≤ -4.2
G74A U77A G92U G112U G124A	≤ -4.2
C35G G59A C85A A106G G126U	≤ -4.2
G48U C75G G92U	≤ -4.2
A12G C54G C116U	-0.574
A17G G83U A107U U135C	≤ -4.2
C54G C75U C95U A147C	-3.31

Variant	polymerase ribozyme fitness (log ratio)
U55G U56A U82C	-1.09
A21G A73G C85A C103U A122U	-1.86
G81U C96U	-1.85
A52C G143C	-3.51
A91C A97G U109C A142C	≤ -4.2
C54G A97U A106C	-2.99
C96A G117U A138U	≤ -4.2
A12G U151G	-4.06
A12G C14G A22G U61A G71A C99U C123U A142G	≤ -4.2
C18U A29C U78G G92A A147C	≤ -4.2
U6C A23G A91U A106G	≤ -4.2
U7A A23C C36A U56A A91U C132G	-3.78
C27G U44G U77G G83C A89U	≤ -4.2
C10U A91U C96A A98U A142G U151C	≤ -4.2
C5A A47U G84A G124U	-1.14
G50C G59C G83A	-3.91
U9A A20C A26G A28U G67U U82C U90G G124A U134C U146A	≤ -4.2
A19C G83U C87U	-0.445
C93U C116U A122U	-1.45
G42A A47U U53G A64U G94U A120U	≤ -4.2
C27U U55A G70C A91U A97U A106G	≤ -4.2
